PMC4232046

What was measured:
[1] = tested on: CBC (HapB/HapC/HapE core CCAAT-binding complex) (Aspergillus fumigatus); experiment: SPR; conditions: SPR Biacore T200, 25 C; 10 mM phosphate pH 7.4, 2.7 mM KCl, 137 mM NaCl, 1 mM DTT, 0.005% surfactant P20, 10 ug/ml poly(dI-dC); biotin-DNA on streptavidin CM3 …
[2] = molecular target: CBC (HapB/HapC/HapE core CCAAT-binding complex);HapX(24-158) (Aspergillus fumigatus;Aspergillus fumigatus) (UniProt Q4WER3); experiment: SPR; conditions: SPR Biacore T200, 25 C; 10 mM phosphate pH 7.4, 2.7 mM KCl, 137 mM NaCl, 1 mM DTT, 0.005% surfactant P20, 10 ug/ml poly(dI-dC); biotin-DNA on streptavidin CM3 …
[3] = molecular target: Aspergillus fumigatus core CCAAT-binding complex (HapB(230–299), HapC(40–137), HapE(47–164)) (Aspergillus fumigatus); experiment: SPR; Biacore T200, 25°C; biotinylated 37-bp cccA promoter duplex (full motif) on streptavidin-coated CM3 chip; CBC injected, HapX(24–158) co-injected on preformed binary CBC/DNA complexes in the steady-state phase; 10 mM phosphate pH 7.4, 2.7 mM KCl, 137 mM NaCl, 1 mM DTT, 0.005% P20, 10 μg/ml poly(dI-dC); 1:1 model with mass transport term

Substance | Kd [1] [nM] | Kd [2] [nM] | KD on CBC-coated DNA (preformed CBC/DNA complex, 37-bp cccA promoter duplex) [3] [nM] | stoichiometry N (HapX chains per CBC) [3]
AAATCCACCAATCAACGCCTCCGTGATTGTCAGCAAT (double strand) [cccAp-369-37] | 0.7 | 1.97 | – | –
Aspergillus fumigatus HapX(24–158) (from UniProt Q4WER3 24-158) (domain or fragment) | – | – | 1.97 | 2
